Among the targets are NZF-1-F2F3 (Rattus norvegicus, UniProt P70475 487-584); CCHFC NZF-1-F2F3 (Rattus norvegicus, UniProt P70475 487-584, H522A;H523F;H567F); CCFHC NZF-1-F2F3 (Rattus norvegicus, UniProt P70475 487-584, H515F;H559F); MyT1-F2F3 (Rattus norvegicus, UniProt D3ZYT5 425-521).
Common to all, as to experiment: fluorescence anisotropy
(In general: In fluorescence polarisation assays a small probe gives low polarisation when free and higher when bound to something large.)

This is an account of results in PMC3671583.

Chain of CCFHC NZF-1-F2F3 (P70475 487-584 H515F/H559F): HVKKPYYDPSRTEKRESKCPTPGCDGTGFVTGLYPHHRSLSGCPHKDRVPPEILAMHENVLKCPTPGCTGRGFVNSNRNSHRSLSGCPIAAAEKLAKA
Chain of NZF-1-F2F3 (P70475 487-584): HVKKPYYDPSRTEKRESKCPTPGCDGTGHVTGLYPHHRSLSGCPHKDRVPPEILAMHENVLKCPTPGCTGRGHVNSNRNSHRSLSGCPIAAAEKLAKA
Chain of CCHFC NZF-1-F2F3 (P70475 487-584 H522A/H523F/H567F): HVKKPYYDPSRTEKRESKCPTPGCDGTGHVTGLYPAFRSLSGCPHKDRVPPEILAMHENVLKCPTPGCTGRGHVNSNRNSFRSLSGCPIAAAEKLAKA

B1: β-RAR DNA (dsDNA)
DNA 1: CACCGAAAGTTCACTC
DNA 2: GAGTGAACTTTCGGTG
For the molecule B1, the values for the Kd with NZF-1-F2F3 and with MyT1-F2F3 were 14 nM and 1300 nM, respectively. The binding result with CCHFC NZF-1-F2F3 and with CCFHC NZF-1-F2F3 was “no binding” in each case.

B2: random DNA (dsDNA)
DNA 1: TGTTTCTGCCTCTGT
DNA 2: ACAGAGGCAGAAACA
Turning to B2, the binding result with NZF-1-F2F3, with CCHFC NZF-1-F2F3 and with CCFHC NZF-1-F2F3 was “no binding” each time. Moreover, the affinity in the data set with MyT1-F2F3, expressed as Kd, was 910 nM.
